Experiments:
TOX [1] = biological target: TOX (UniProt Q66JW3); experiment: TOX co-IP from EL4 nuclear extract, LC-MS/MS, MiST
TOX [2] = biological target: TOX (UniProt Q66JW3); experiment: anti-TOX IP from EL4 nuclear extract, LC-MS/MS, MiST vs IgG control

Sequence of TOX (Q66JW3 whole entry): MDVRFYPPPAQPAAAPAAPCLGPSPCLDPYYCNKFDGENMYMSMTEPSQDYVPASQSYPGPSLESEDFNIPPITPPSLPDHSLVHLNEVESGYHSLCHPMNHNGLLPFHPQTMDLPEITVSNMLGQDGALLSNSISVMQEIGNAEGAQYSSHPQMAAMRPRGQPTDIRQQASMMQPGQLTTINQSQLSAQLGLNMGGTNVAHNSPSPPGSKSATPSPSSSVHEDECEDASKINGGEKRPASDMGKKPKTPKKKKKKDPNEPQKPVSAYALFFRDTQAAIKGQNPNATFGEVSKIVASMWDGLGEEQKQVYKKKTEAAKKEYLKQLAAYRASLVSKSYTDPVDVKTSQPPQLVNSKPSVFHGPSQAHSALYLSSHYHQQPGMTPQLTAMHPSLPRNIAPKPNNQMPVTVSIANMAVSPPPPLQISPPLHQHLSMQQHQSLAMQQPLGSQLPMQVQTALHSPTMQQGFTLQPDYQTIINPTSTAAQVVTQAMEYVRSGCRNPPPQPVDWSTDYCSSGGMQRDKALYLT

| Binder | Abundance (TOX [1]) | MiST Score (TOX [1]) | Reproducibility (TOX [1]) | Specificity (TOX [1]) | Abundance (TOX [2]) | MiST Score (TOX [2]) | Reproducibility (TOX [2]) | Specificity (TOX [2]) |
| --- | --- | --- | --- | --- | --- | --- | --- | --- |
| Spty2d1 (protein, UniProt Q68FG3 1-682, looked up) Protein SPT2 homolog: MDFREILLIASKGQGVNHVPKRYSLAVGPPKKDPKVKGVQSAAVQAFLRRKEEELRQKALEEKKRKEELVKKRIELKHDKKARAMAKRTKDNFHGYDGIPVEEKTKKKQLVESHLNQGTDQEYDVEEEDFIDYNQAELDQDYEEEQEPPKAESKPKAPLKSAPSPMNFTDLLRLAEKKQFEPVEIKVVKKAEDRPLTAEELREREFLERKHRKKKPEPDAKLPPPVLKKAPSHKDIMGTKPSRGAGDRQLASKGLPFPQAEKKFRPSTASEKQAALSSPKSLPGERTKVGSGSSTQPSLREGHNRPVFNGAGKPRPSTCSPSVPKTPASGTQKSASEHKAKKPLPSHPSHSKPGPTVLSHNKSKSPGVRQPGSNSGSAPGQPNPGTARPTLSSGPVPRRQNGSSSSGPEQSAGGIRKLASNSHLSGRTLNGTNGPGRPASSSSGPGRPISGSAGSGRPVGSSGGPGQPVNNPHDLRRPMNSLSSPGRAVSGPGRSISGSIPAGRTVNSGPGRPVSSLGPGRAVSNPGLPTKPRCTVVSETISSKNIISRSSNGQINGMKPLLSGYRSAQGPQRLPFPTGYKRPREYEEDDDDEYDSEMDDFIEDEGEPQEEISKHIREIFGYDRKKYKDESDYALRYMESSWKEQQKEEAKSLRLGMQEDLEEMRREEEELKRRKAKKLKRH | 1.04e-05 | 0.846 | 0.848 | 0.852 |  |  |  |  |
| Cwc27 (protein, UniProt Q3TKY6 2-469, looked up) Spliceosome-associated protein CWC27 homolog: SNIYIQEPPTNGKVLLKTTAGDIDIELWSKEAPKACRNFIQLCLEAYYDNTIFHRVVPGFIVQGGDPTGTGTGGESIYGAPFKDEFHSRLRFNRRGLVAMANAGPHDNGSQFFFTLGRADELNNKHTIFGKVTGDTVYNMLRLTEVDIDDEERPRNPHRIKSCEVLFNPFDDITPREIKKPKNEKPEEEVKKLKPKGTKNFSLLSFGEEAEEEEEEVNRVSQSMKGRSKSSHDLLKDDPHLSSVPAVESEKDDATGDLEDDGEDDSAERDEYMEDDEKNLMRERIAKRLKKDASASVKSAGDGEKKPASRSEELRKEARQLKRELLAAKQKKETAIKVEEGREEEEAAPDGAVAEYRREKQKYEALRKQQPKKGTSREDQTLALLSQFKSKLTQAITETPENSVPEAEVEDDEGWMSHVLQFEDKTRKVKDASMQDSDTFEIYDPRNPVNKRRREESKKLLREKKERR |  |  |  |  | 1.14e-05 | 0.758 | 0.435 | 0.91 |

— US20210071139A1
